Source: patent publication US10828372B2, “Compositions and methods for the inhibition of fibrosis” (WISCONSIN ALUMNI RESEARCH FOUNDATION, priority 2017, dated 2020)
Where no end group is shown, it is not given here.

Assays:
[1] = Fluorescence imaging (IVIS) of subcutaneous dose absorption; format: in vivo, mouse
Protocol: Preparation of Animal Experiment FUD and 10-40 kDa PEG-FUD Drug Dose: A 12.5 mg FUD equivalents per kg of mouse weight drug dose spiked with 1.5% Cy5 labeled drug was prepared by mixing an appropriate amount of unlabeled and labeled drug in a conical vial. The drug was then dialyzed ON into phosphate buffered saline (pH 7.4) using a 3000 MWCO dialysis membrane. The total volume of the dose was reduced to the appropriate value using a 3000 MWCO Amicon® Ultra-15 centrifugal unit. The final concentration of the drug was determined using a UV-vis spectrophotometer and the 646 nm extinction coefficient of Cy5, ε=271000 L·mol^−1·cm^−1.
10 week old mice weighing 20-23 g were placed under 2% isoflurane anesthesia and positioned on their abdomen inside of an IVIS Spectrum In Vivo Imaging System. A 100 uL dose containing 0.27 mg (12.5 mg/kg) of FUD or FUD equivalents of 10-40 kDa PEG-FUD that was spiked with 1.5% Cy5 labeled drug was delivered subcutaneously between the shoulder blades of the animals (n=3 per treatment group). The animals were imaged before the injection, immediately following injection, and at time points of 30 minutes and 1, 3, 6, 12, 24, 36, and 48 hours. The animals were sacrificed following the last time point and their organs were harvested for ex vivo fluorescence imaging and drug extraction and quantification. LivingImage® (PerkinElmer) software was used to analyze the views of each animal group. The autodraw feature of the software set to a 5% threshold was used to create unique regions of interest (ROI) on each animal at t=30 mins views that were consistently applied to each subsequent time point views to quantify drug levels present at the site of injection. Baseline autoflorescence values calculated from ROIs applied to “before injection” views were subtracted from the values of each time point's animals. The ROI values obtained from the t=30 mins views were used to calculate % dose remaining for each subsequent time point.

[2] = tested on: bleomycin-induced pulmonary fibrosis; experiment: Bleomycin-induced pulmonary fibrosis model: hydroxyproline and survival; format: in vivo, mouse
Protocol: All efforts were made to minimize suffering. The Bleomycin model is a rodent model representing a human equivalent of pulmonary fibrosis with the fibrotic response peaking between 14 and 21 days post-bleomycin installation. To initiate bleomycin injury, mice were anesthetized with ketamine (100 mg/kg) and xylazine (15 mg/kg) prior to delivering a single intratracheal dose of bleomycin (1 U/kg, Teva Pharmaceutical Industries, Ltd) reconstituted in 0.9% Normal Saline (NS) or NS alone as control.
End-points for analysis: On day 14, mice were euthanized and lungs homogenized for hydroxyproline and western blot. Additionally, mouse survival by day 14 was compared between bleomycin PEG-FUD- and bleomycin PEG-mFUD-treated groups using Log-Rank test.
Hydroxyproline assay: Hydroxyproline assay was performed by Dounce homogenizing right lungs in deionized water, hydrolyzing in 6 N HCl for three hours at 120° C., drying for 45 min at 65° C., incubating in citrate-acetate buffer and chloramine-T for 20 min at room temperature, followed by Ehrlich's reagent for 15 min at 65° C. Subsequently, the samples were cooled to room temperature and the absorbance measured at 550 nm. […] Hydroxyproline results were analyzed using Students t-test with Bonferroni post-hoc test, comparing bleomycin- and PEG-FUD-treated mice to those treated with bleomycin and PEG-mFUD.

[3] = UUO kidney ECM fraction, s.c. approximately 12.5 mg/kg daily; extrapolated
Protocol: Unilateral Ureteral Obstruction model. Male C57BL/6 mice were purchased from Envigo (Madison, Wis.) and housed in the Wisconsin Institutes for Medical Research animal facilities at the University of Wisconsin-Madison with ad-libitum access to food and water. Animals were maintained in humidity and temperature-controlled rooms under 12 h light/dark cycles. All work was conducted under protocol M5421, reviewed and approved by the University of Wisconsin-Madison Institutional Animal Care and Use Committee. All efforts were made to minimize suffering. The Unilateral Ureteral Obstruction (UUO) model is a rodent surgical model representing a human equivalent of […]. Obstruction results in marked dilatation of the ureter together with reduced renal blood flow and glomerular filtration. […]
Tissue extraction and immunoblotting: Kidney tissues were fractionated as described in the art. […] Relative quantitation of specific blotted protein was performed by assessing band intensities using Image J and normalizing to bands obtained with rabbit anti-Histone 3 rabbit IgG (CellSignalTechnology, Danves, Mass., USA) or goat anti-GAPDH-HRP conjugated IgG (Genscript, Piscataway, N.J., USA), which were used as loading controls for ECM or lysate fractions, respectively.

Row | Substance | % dose remaining at the site of injection after 24 hours ([1]; s.c. 12.5 mg/kg FUD equivalents, 24 hours) [%] | apparent half-life at the site of injection ([1]; s.c. 12.5 mg/kg, spiked with 1.5% Cy5 labeled drug, nude mice) [min] | survival to the end of the 14-day trial ([2]; bleomycin-treated mice, s.c. 12.5 mg/kg/day day 3-13) [%] | collagen accumulation (hydroxyproline assay, right lung) ([2]; day 14 post-bleomycin, s.c. 12.5 mg/kg/day day 3-13, vs PEG-mFUD) | PEG-FUD level in kidney [3] [ng per mg]
1 | FUD: 49 amino acid FUD peptide, SEQ ID NO: 1, recombinantly expressed, His-tag removed; inhibitor of fibronectin fibrillogenesis (KDQSPLAGESGETEYITEVYGNQQNPVDIDKKLPNETGFSGNMVETEDT; human) [reference compound] | 0.3 | 35 | – | – | –
2 | PEG-FUD: PEGylated FUD prepared as in Example 1, PEG size not stated; approximately 27 kDa by mass spectrometry, likely the 20 kDa conjugate (KDQSPLAGESGETEYITEVYGNQQNPVDIDKKLPNETGFSGNMVETEDT; not fully specified (N-terminus); also: PEG size not given here) | – | – | 100 | significant reduction of collagen accumulation | ~50
